Experimental data: the supplement of paper PMC9732359
± gives the uncertainty stated by the source.

Test: protein stability index of a GFP-peptide fusion (yeast GPS) (PSI 1-4); higher = more stable; sorted into four equal gates, so the index is relative within each strain
How it was run: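 The protein stability index combines read frequencies across sorting gates, each weighted by its gate number and then summed. To obtain those frequencies, a pooled yeast library of GFP fusions to tiled 17-residue yeast protein peptides, on a plasmid also expressing Cherry, was grown to mid-log phase in leucine-free medium. The cells were sorted into four equal gates by GFP/Cherry ratio before plasmid amplification by PCR and Illumina sequencing.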

Row | Sequence | protein stability index (doa10∆) | protein stability index (pdr5∆) | protein stability index (san1∆) | protein stability index (ubr1∆)
1 | TEDGWIYHGNHDVGELF [PRE2] | 2.05 ± 0.057 | 1.84 ± 0.049 | 2 ± 0.074 | 2.33 ± 0.043
2 | TEDIRIRAQNFKSALAN [RRP6] | 2.35 ± 0.067 | 2.41 ± 0.091 | 2.56 ± 0.1 | 2.73 ± 0.053
3 | TEGHKGHEELKRRIEEE [ISW2] | 3.33 ± 0.085 | 3.42 ± 0.09 | 3.11 ± 0.068 | 3.23 ± 0.065
4 | TEHVRQNAKLLANLIRD [RRP6] | 1.54 ± 0.046 | 1.93 ± 0.08 | 2.39 ± 0.14 | 1.62 ± 0.086
5 | TEIENYLLENNQVGTDE [YDL116W/NUP84] | 3.11 ± 0.11 | 2.9 ± 0.082 | 3.39 ± 0.072 | 2.84 ± 0.098
6 | TEIISTLSNGLIASHYG [BRR2] | 2.55 ± 0.076 | 2.79 ± 0.096 | 2.42 ± 0.1 | 2.33 ± 0.062
7 | TEISGLKNVNKRAFENF [SMC3] | 3.28 ± 0.079 | 3.09 ± 0.097 | 2.7 ± 0.096 | 2.96 ± 0.057
8 | TEKEPVPAVVDDPLENM [SNF6] | 2.85 ± 0.073 | 3.12 ± 0.08 | 2.69 ± 0.082 | 2.88 ± 0.068
9 | TELTHHLLPRNEWIKAQ [QCR7] | 2.37 ± 0.068 | 2.16 ± 0.073 | 2.04 ± 0.12 | 1.85 ± 0.046
10 | TESPLKTVDSSIQPIES [SSN2] | 2.99 ± 0.066 | 2.93 ± 0.053 | 2.91 ± 0.053 | 2.93 ± 0.03
11 | TETFEKPQRTNTLRMKH [RPB2] | 3.05 ± 0.16 | 3.21 ± 0.14 | 3.16 ± 0.1 | 3.05 ± 0.12
12 | TEVSRKSMKYVKKILPL [ECM29] | 2.34 ± 0.28 | 1.5 ± 0.24 | – | 1.18 ± 0.16
13 | TEYRGTLVSTDNYFNLQ [SMX3] | 1.83 ± 0.038 | 2.65 ± 0.046 | 2.4 ± 0.059 | 2.23 ± 0.041
14 | TFGINLIYVNPFMLQWG [FAS1] | 2.22 ± 0.067 | 2.35 ± 0.08 | 2.46 ± 0.074 | 2.4 ± 0.051
15 | TFGKKADVTSNIDSSAQ [YOR098C/NUP1] | 2.09 ± 0.058 | 2.23 ± 0.045 | 1.91 ± 0.11 | 2.57 ± 0.038
16 | TFIKDCLFTKCLEDPEK [POP4] | 1.57 ± 0.11 | 1.78 ± 0.091 | 1.57 ± 0.18 | 1.83 ± 0.061
17 | TFIYFAYFLIIVPVIST [COB] | 1.68 ± 0.05 | 1.3 ± 0.046 | 1.16 ± 0.087 | 1.1 ± 0.027
18 | TFLPPLLLKLASPHASV [ECM29] | 1.63 ± 0.039 | 1.8 ± 0.04 | 1.66 ± 0.061 | 1.41 ± 0.027
19 | TGAGVSTSLGIPDFRSS [SIR2] | 2.19 ± 0.079 | 2.51 ± 0.082 | 2.1 ± 0.19 | 2.86 ± 0.078
20 | TGAPPYYYNTKIYKLEN [YMR129W/POM152] | 2.8 ± 0.063 | 2.72 ± 0.064 | 2.5 ± 0.11 | 3.17 ± 0.041

Row | Sequence | protein stability index (doa10∆) | protein stability index (pdr5∆) | protein stability index (san1∆) | protein stability index (ubr1∆)
21 | TGDADEPELRVLSTEEI [RPO21] | 3.59 ± 0.13 | 3.25 ± 0.099 | 3.49 ± 0.064 | 3.43 ± 0.06
22 | TGLKLYSRITLIIDDPS [RPP1] | 2.22 ± 0.065 | 2.8 ± 0.077 | 2.17 ± 0.062 | 2.75 ± 0.086
23 | TGNGTTTTSNTSGTNIA [YOR098C/NUP1] | 2.96 ± 0.045 | 2.69 ± 0.047 | 2.46 ± 0.056 | 2.41 ± 0.035
24 | TGNTTSKSAFSFGTANT [YOR098C/NUP1] | 2.5 ± 0.064 | 2.72 ± 0.058 | 1.95 ± 0.076 | 2.75 ± 0.056
25 | TGQNFLTSNISSLVRSC [REC8] | 3.21 ± 0.12 | 2.78 ± 0.08 | 2.54 ± 0.099 | 2.96 ± 0.091
26 | TGRMRYLKHVSRRFKNG [RPL37A] | 2.67 ± 0.059 | 3.25 ± 0.042 | 3.44 ± 0.048 | 3.38 ± 0.047
27 | TGSDREVQRILIELLTQ [RPT3] | 3.02 ± 0.14 | – | – | 3.5 ± 0.23
28 | TGTARLNSMPNNVNEYS [YJL039C/NUP192] | 2.82 ± 0.1 | 2.74 ± 0.085 | 3.01 ± 0.052 | 2.89 ± 0.056
29 | THKVTDIYSHEYKVITS [YMR129W/POM152] | 1.71 ± 0.065 | 1.97 ± 0.082 | 2.38 ± 0.089 | 2.13 ± 0.064
30 | THQSPPPPPQQSQPIAN [SNF5] | 3.01 ± 0.057 | 3.07 ± 0.043 | 2.98 ± 0.04 | 2.94 ± 0.046
31 | THSYNFMRQNLEWNMAN [RPC82] | 2.45 ± 0.064 | 1.75 ± 0.057 | 1.74 ± 0.07 | 2.24 ± 0.048
32 | TIDWVEAGLQLCRQGHN [PRP8] | 2.08 ± 0.18 | 2.77 ± 0.1 | 2.08 ± 0.091 | 2.26 ± 0.085
33 | TIETFNEAALVVNITHH [RPB5] | 1.69 ± 0.11 | 1.92 ± 0.061 | 1.64 ± 0.16 | 1.58 ± 0.13
34 | TIFKSGEIDFIKNIGKS [YML103C/NUP188] | 1.64 ± 0.069 | 2.37 ± 0.061 | 1.92 ± 0.12 | 2.51 ± 0.073
35 | TIKISTNDDSIKNLTVQ [RGR1] | 2.88 ± 0.13 | 3.05 ± 0.1 | 2.9 ± 0.074 | 2.96 ± 0.14
36 | TISSLFVQLCEMGYLIQ [RPC82] | 1.85 ± 0.061 | 1.69 ± 0.078 | 1.61 ± 0.16 | 2.39 ± 0.081
37 | TITDLIEQGIPKHSYLS [SIR4] | 3.05 ± 0.059 | 3.16 ± 0.06 | 3.21 ± 0.073 | 3.17 ± 0.043
38 | TIVNDSNYDWLFQLLNA [RPN9] | 2.34 ± 0.074 | 2.58 ± 0.077 | 2.34 ± 0.078 | 2.61 ± 0.048
39 | TKCSTVVKASELDQFWQ [SRP14] | 2.17 ± 0.041 | 2.14 ± 0.047 | 2.04 ± 0.082 | 1.72 ± 0.03
40 | TKEKVNGASVPINLHPS [RPL26A] | 2.54 ± 0.067 | 2.73 ± 0.078 | 2.92 ± 0.07 | 2.93 ± 0.064
